Paper PMC4330359, “DNA-mediated cooperativity facilitates the co-selection of cryptic enhancer sequences by SOX2 and PAX6 transcription factors”

Assays:
[1] = target: Sox2-HMG long (109 aa);Pax6-PRD R44Q (mouse;mouse?, UniProt P48432;P63015 41-149;4-130, |R44Q); experiment: EMSA; cooperativity not affected by R44Q; EMSA: 10 mM Tris-HCl pH 8.0, 0.1 mg/ml BSA, 50 uM ZnCl2, 100 mM KCl, 10% glycerol, 0.1% IGEPAL CA-630, 2 mM 2-mercaptoethanol, 1-2 h, gel at 4 C, 100-300 nM DNA; NMR: 50 mM K phosphate, 100 mM NaCl, pH 7.0, 298 K; settings: protein: recombinant;recombinant; tags: ;; copies: 1;1; label: 5'-FAM or 5'-Cy5; blunt
Sox2-HMG long (109 aa);Pax6-PRD R44Q, sequence (P48432 41-149, chain 1 of 2): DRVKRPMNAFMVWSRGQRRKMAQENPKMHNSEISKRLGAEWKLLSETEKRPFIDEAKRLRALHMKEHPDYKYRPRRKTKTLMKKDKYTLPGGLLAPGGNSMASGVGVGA
Sox2-HMG long (109 aa);Pax6-PRD R44Q, sequence (P63015 4-130 R44Q, chain 2 of 2): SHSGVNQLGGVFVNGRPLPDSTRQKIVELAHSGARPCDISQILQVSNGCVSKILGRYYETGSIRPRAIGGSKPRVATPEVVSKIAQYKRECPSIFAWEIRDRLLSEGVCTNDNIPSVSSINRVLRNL

[2] = target: Sox2-HMG long (109 aa);Pax2-PRD (mouse;mouse?, UniProt P48432;P32114 41-149;15-141, |); experiment: EMSA; cooperative; EMSA: 10 mM Tris-HCl pH 8.0, 0.1 mg/ml BSA, 50 uM ZnCl2, 100 mM KCl, 10% glycerol, 0.1% IGEPAL CA-630, 2 mM 2-mercaptoethanol, 1-2 h, gel at 4 C, 100-300 nM DNA; NMR: 50 mM K phosphate, 100 mM NaCl, pH 7.0, 298 K; settings: protein: recombinant;recombinant; tags: ;; copies: 1;1; label: 5'-FAM or 5'-Cy5; blunt
Sox2-HMG long (109 aa);Pax2-PRD, sequence (P48432 41-149, chain 1 of 2): as the sequence (P48432 41-149, chain 1 of 2) above
Sox2-HMG long (109 aa);Pax2-PRD, sequence (P32114 15-141, chain 2 of 2): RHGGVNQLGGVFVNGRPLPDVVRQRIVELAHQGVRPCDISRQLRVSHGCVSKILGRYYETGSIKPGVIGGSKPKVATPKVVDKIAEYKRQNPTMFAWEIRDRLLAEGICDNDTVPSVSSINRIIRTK

[3] = target: Sox2-HMG long (109 aa);Pax9-PRD (mouse;mouse?, UniProt P48432;P47242 41-149;4-130, |); experiment: as above; settings: protein: recombinant;recombinant; tags: ;; copies: 1;1; label: 5'-FAM or 5'-Cy5; blunt
Sox2-HMG long (109 aa);Pax9-PRD, sequence (P48432 41-149, chain 1 of 2): as the sequence (P48432 41-149, chain 1 of 2) above
Sox2-HMG long (109 aa);Pax9-PRD, sequence (P47242 4-130, chain 2 of 2): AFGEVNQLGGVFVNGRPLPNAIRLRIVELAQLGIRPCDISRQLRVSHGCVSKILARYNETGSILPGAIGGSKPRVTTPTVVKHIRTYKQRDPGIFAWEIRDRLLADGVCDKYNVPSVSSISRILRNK

[4] = target: Sox2-HMG long (109 aa);Pax3-PRD (mouse;mouse?, UniProt P48432;P24610 41-149;34-161, |); experiment: as above; settings: protein: recombinant;recombinant; tags: ;; copies: 1;1; label: 5'-FAM or 5'-Cy5; blunt
Sox2-HMG long (109 aa);Pax3-PRD, sequence (P48432 41-149, chain 1 of 2): as the sequence (P48432 41-149, chain 1 of 2) above
Sox2-HMG long (109 aa);Pax3-PRD, sequence (P24610 34-161, chain 2 of 2): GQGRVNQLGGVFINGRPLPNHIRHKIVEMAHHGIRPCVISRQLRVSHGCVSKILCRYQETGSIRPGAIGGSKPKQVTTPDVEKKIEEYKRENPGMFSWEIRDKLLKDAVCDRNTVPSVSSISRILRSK

[5] = target: Sox2-HMG long (109 aa);Pax8-PRD (mouse;mouse?, UniProt P48432;Q00288 41-149;9-135, |); experiment: as above; settings: protein: recombinant;recombinant; tags: ;; copies: 1;1; label: 5'-FAM or 5'-Cy5; blunt
Sox2-HMG long (109 aa);Pax8-PRD, sequence (P48432 41-149, chain 1 of 2): as the sequence (P48432 41-149, chain 1 of 2) above
Sox2-HMG long (109 aa);Pax8-PRD, sequence (Q00288 9-135, chain 2 of 2): as the sequence (P32114 15-141, chain 2 of 2) above, with R1G, V5L, V11A, D20E, E28D, K64R, D82E, A85G, E86D, I108V counted along it

[6] = target: T1, Sox2-HMG long (109 aa) (mouse, UniProt P48432 41-149); experiment: EMSA; binary Sox2-DNA complex prominent; EMSA: 10 mM Tris-HCl pH 8.0, 0.1 mg/ml BSA, 50 uM ZnCl2, 100 mM KCl, 10% glycerol, 0.1% IGEPAL CA-630, 2 mM 2-mercaptoethanol, 1-2 h, gel at 4 C, 100-300 nM DNA; NMR: 50 mM K phosphate, 100 mM NaCl, pH 7.0, 298 K; settings: protein: recombinant; label: 5'-FAM or 5'-Cy5; blunt
T1 sequence (P48432 41-149): as the sequence (P48432 41-149, chain 1 of 2) above

[7] = target: T1, Sox2-HMG long (109 aa); experiment: NMR; 1:1.2 Sox2:DC5; EMSA: 10 mM Tris-HCl pH 8.0, 0.1 mg/ml BSA, 50 uM ZnCl2, 100 mM KCl, 10% glycerol, 0.1% IGEPAL CA-630, 2 mM 2-mercaptoethanol, 1-2 h, gel at 4 C, 100-300 nM DNA; NMR: 50 mM K phosphate, 100 mM NaCl, pH 7.0, 298 K; settings: protein: recombinant; blunt

B1: DC5 (dsDNA)
DNA 1: AAATATTCATTGTTGTTGCTCACCTACCATGGATCC
DNA 2: GGATCCATGGTAGGTGAGCAACAACAATGAATATTT
binding result [1]: binds
binding result [2]: binds
binding result [3]: binds
binding result [4]: binds
binding result [5]: binds

B2: DC5con (dsDNA)
DNA 1: AAATATTCATTGTTGATGTTCACGCATCATGGATCC
DNA 2: GGATCCATGATGCGTGAACATCAACAATGAATATTT
binding result [6]: binds

B3: DC5 31-mer (NMR) (dsDNA)
DNA 1: TTCATTGTTGTTGCTCACCTACCATGGATCC
DNA 2: GGATCCATGGTAGGTGAGCAACAACAATGAA
binding result [7]: binds
